From patent US20220265806A1

Target: E1′ (CHIKV E1 ectodomain construct) (Chikungunya virus)

Substance: chCHK-166^pMAZ (antibody)
- EC50: 2.2 nM
